For data set [1], the system named is tumor cells. The settings on record: molecular range where the complex kills tumor cells; ref [10], [17]; cited from earlier work. The source says: The structural basis for HAMLET's tumoricidal activity is not fully understood. […] Since native α-lactalbumin lacks these activities, we hypothesized that the partially unfolded and ... || Recent Far-UV CD spectroscopy studies have shown that the secondary structural features in HAMLET are similar to those in α-lactalbumin [10], which include an alpha1 and alpha2 domain, consisting of the amino acid residues K1-Q39 and L81-L123, respectively, as well as the beta domain, formed by the residues A40-F80 (Fig. 3A–B). […] As described above the alpha2 domain forms a part of the globular domain (residues L81 to W104) as well as the C-terminal tail with t ...

The test system of data set [2] is Jurkat cells. As to the kind of experiment: Na^+ flux, CoroNa Green Sodium Indicator, fluorometry. Format: cell-based, human. As to the method: (§1) To quantify the ion fluxes, fluorometry was measured in a plate reader (TECAN infinite F200, Tecan Group, Switzerland). For calcium fluxes measurement, the Fluo-4 NW calcium assay kit (Invitrogen) was used. For K^+ fluxes, the FluxOR™ potassium ion channel assay (Invitrogen) was used according to the manufacturer's instructions but component E was excluded. Briefly, cells were incubated with FluxOR™, which is a Tl^+ indicator. An increase in fluorescence signal corresponds to an influx of Tl^+, indicating opening of potassium channels, which was measured at 535 nm after excitation at 485 nm in the TECAN infinite plate reader. Given the driving force for K^+ flux across the plasma membrane this corresponds to K^+ efflux. Calcium and potassium fluxes was measured in 20 000 A549 cells plated in a 96-well plate. Sodium was measured in 100 000 Jurkat cells using the CoroNa Green Sodium Indicator (Invitrogen).

In data set [3] the test system is A549 cells. Briefly: K^+ flux, FluxOR potassium ion channel assay (Tl^+ influx), fluorometry. Format: cell-based, human. The protocol: as §1
Data set [4] is described as follows: Solubility of biotinylated peptide (remark). Format: physicochemical. The following applies: added at 12 µM instead of 105 uM.
The test system of data set [5] is A549 cells. As to the kind of experiment: Ca^2+ flux, Fluo-4 NW calcium assay, fluorometry. Format: cell-based, human. The protocol:
as §1

Data set [6] has as its system lung carcinoma or leukemia cells. As to the kind of experiment: Tumor cell death (ATP level, PrestoBlue), cell line not given. Format: cell-based, human. The settings on record: 3 hours; HAMLET (positive control) or peptide mixed with sodium oleate; cell line not given. The protocol: A549 human lung carcinoma cell line and the Jurkat human acute T-cell leukemia cell line (obtained from ATCC, Manassas, VA, USA) were cultured in RPMI-1640 with non-essential amino acids (1∶100), 1 mM sodium pyruvate (all from PAA, Pasching, Austria), […] Gentamicin (Gibco, Paisley, UK) and 5% fetal calf serum (FCS) at 37°C, 5% CO2. Cells (5*10^5 cells/ml for A549 cells, 1*10^6 cells/ml for Jurkat cells) in suspension were incubated with either […] or peptide-oleate mixtures in serum-free RPMI-1640 at 37°C, 5% CO2. 5% FCS was added after 1 hour. Cell death was quantified by ATP level measurement (ATPlite Kit, PerkinElmer, Waltham, MA, Infinite F200, Tecan Group Ltd., Männedorf, Switzerland) and by using PrestoBlueTM Cell Viability Reagent (Invitrogen, Carlsbad, CA).

In data set [7] the test system is A549 lung carcinoma cells. As to the kind of experiment: Cell morphology by phase holographic imaging and transmission DIC. Format: cell-based, human. The settings on record: adherent A549 cells; HAMLET or peptide-oleate mixture; images every 15 minutes. As to the method: For cellular uptake assays, A549 lung carcinoma cells were grown overnight on 8-well chamber slides (Nalge Nunc, Rochester, NY). Cells were incubated 1 hour with 35 μM biotinylated peptide with or without 175 μM sodium oleate (Sigma) in serum free RPMI media, followed by fixation (4% paraformaldehyde) and permeabilization (0.25% Triton X-100, 5% FCS in phosphate-buffered saline). Peptides were visualized by incubation with streptavidin-Alexa568 (Molecular Probes) and Wheat Germ Agglutinin (WGA) (Molecular Probes) was used to visualize plasma and nuclear membranes. Images were captured on a LSM510 META confocal microscope (Carl Zeiss, Jena, Germany) with pinhole settings corresponding to one airy unit. Quantification of fluorescence intensities was performed with the ImageJ software. The HoloMonitorTM M3 digital holographic microscope (Phase Holographic Imaging AB, Lund, Sweden) records 3D information of cells using interfering wave fronts induced by the exposure to a 0.8 mW HeNe laser (633 nm), resembling a Mach-Zender interferometer where the cells, placed in one of the interfering wave fronts, induce a phase difference between the two beams [26]-[28]. The interference pattern (hologram) is recorded on a digital sensor and is used to reconstruct the amplitude and phase of the object as described, [30]. […]

Data set [8] is described as follows: Small angle X-ray scattering, state in solution. Format: physicochemical. The settings on record: 2.5 and 6.5 mg/ml in phosphate-buffered saline, 15 °C. The source says:
Small angle X-ray scattering (SAXS) data for HAMLET were collected at the German Electron Synchrotron (DESY) of the EMBL Hamburg using the X33 SAXS camera, [19] located on a bending magnet (sector D) on the storage ring DORIS III. Pilatus 1 M pixel detector (67×420 mm^2) that operates in single photon counting mode was used. A sample - detector distance of 2.4 m which covers the range of momentum transfer 0.1<s<4.5 nm^−1 (s = 4π sin(q)/λ, where q is the scattering angle and λ = 0.15 nm is the X-ray wavelength) was utilized. The calibration of the s-axis was done by the scattering pattern of Silver-behenate salt (d-spacing 5.84 nm). For each sample measurement the scattering from the buffer was measured before and after. The average scattering for the before and after buffer measured was calculated and it is used for background subtraction for each sample. In order to assess and remove any concentration-dependant inter-particle effects for HAMLET, the protein concentrations 2.5 and 6.5 mg/ml in phosphate-buffered saline were used for the measurement. Automated sample-changing robot was used for injecting the protein as well as the buffer samples at the SAXS station X33 [20]. […]
By comparing the forward scattering from the reference solution of bovine serum albumin (BSA), the molecular mass of HAMLET was calculated as described in [18]. […]

In data set [9] the test system is glioblastomas, papillomas and bladder cancer. The settings on record: ref [1]–[3]; cited from earlier work. From the text:
Healthy, differentiated cells are much less sensitive to HAMLET and toxic effects on healthy tissues have not been observed in tumor models.

On to `CCCCCCCC/C=C\CCCCCCCC(=O)O` [oleic acid], for which the “Toxicity of oleic acid alone” value in [1] is recorded as “not toxic”.
With “GLFQISNKLWAKSSQ [Peptide 6, 15-amino-acid peptide of α-lactalbumin library]”, the “Na^+ flux, + oleate” value in data set [2] (peptide mixed with sodium oleate, CoroNa Green fluorescence) is given as “Weak Na^+ fluxes”. For the same molecule, in data set [3] (peptide mixed with sodium oleate, FluxOR fluorescence), the “K^+ flux, + oleate” value is given as “No”. In addition, the “K^+ flux, - oleate” value in data set [3] (peptide without sodium oleate, FluxOR fluorescence) is “No”. In addition, in data set [4], the Solubility result is listed as “lower solubility”. Further, in data set [5] (peptide mixed with sodium oleate, Fluo-4 fluorescence), the “Ca^2+ flux, + oleate” value is on record as “weaker Ca^2+ flux”. Also, the “Ca^2+ flux, - oleate” value in data set [5] (peptide without sodium oleate, Fluo-4 fluorescence) is “No”.

B1: HAMLET (protein)
chain: KQFTKCELSQLLKDIDGYGGIALPELICTMFHTSGYDTQAIVENNESTEYGLFQISNKLWCKSSQVPQSRNICDISCDKFLDDDITDDIMCAKKILDIKGIDYWLAHKALCTEKLEQWLCEKL
On to B1, for which, in data set [2] (HAMLET or sodium oleate alone, CoroNa Green, mean of at least two experiments), the “Na^+ flux, substance alone” value is on record as “Na^+ fluxes”. In data set [3] (HAMLET or sodium oleate alone, FluxOR, mean of at least two experiments), the “K^+ flux, substance alone” value is “rapid and sustained”. In addition, in data set [6], the “Reduction of cell viability” value came to 90%. Further, the “Morphological change by holographic imaging” value in [7] was “increase in cellular optical thickness and a reduction in adherent surface area after 30 minutes, followed by cell detachment at later time points”. Further, in data set [8] (SAXS forward scattering vs BSA reference), the “Oligomeric state in solution” value was “monomeric”. For the same molecule, the “Protein aggregation (Guinier plot)” value in data set [8] (SAXS) is reported as “no protein aggregation”. Moreover, in data set [9], the “Therapeutic efficacy in vivo” value is reported as “therapeutic efficacy”. Also, in data set [5] (HAMLET or sodium oleate alone, Fluo-4, mean of at least two experiments), the “Ca^2+ flux, substance alone” value was “rapid and sustained”.

Source of the values: publication PMC3531425, “Low Resolution Solution Structure of HAMLET and the Importance of Its Alpha-Domains in Tumoricidal Activity” (PLoS ONE, 2012).
